The source of these data is patent publication US20180201672A1 (ACADEMIA SINICA, published 2018).

The assay has as its target T1, interleukin-17 receptor B (IL-17RB), human, endogenous or ectopic full-length on cells (human, UniProt Q9NRM6 18-502).
T1 construct: In the assays the protein stood on human cancer cell lines or tissue sections; also called native IL-17RB; endogenous IL-17RB
T1 sequence: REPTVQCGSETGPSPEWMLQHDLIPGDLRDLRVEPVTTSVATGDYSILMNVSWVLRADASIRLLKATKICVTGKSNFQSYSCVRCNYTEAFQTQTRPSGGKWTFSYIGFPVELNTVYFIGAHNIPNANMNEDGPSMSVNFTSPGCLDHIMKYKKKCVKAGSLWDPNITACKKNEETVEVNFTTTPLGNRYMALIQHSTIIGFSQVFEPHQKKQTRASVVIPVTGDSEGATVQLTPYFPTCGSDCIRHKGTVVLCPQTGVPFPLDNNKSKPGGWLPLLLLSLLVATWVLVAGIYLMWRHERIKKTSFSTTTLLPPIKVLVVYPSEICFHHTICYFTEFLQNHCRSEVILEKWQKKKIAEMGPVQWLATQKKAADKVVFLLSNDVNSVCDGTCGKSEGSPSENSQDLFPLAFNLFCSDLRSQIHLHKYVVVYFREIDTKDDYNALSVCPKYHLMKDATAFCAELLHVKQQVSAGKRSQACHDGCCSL
As to the kind of experiment: FACS on IL-17RB expressing pancreatic cancer cell lines (CFPAC-1 WT and KO, HPAF-II; MCF10A negative control). The protocol:
FIG. 9. Specificity and Binding Efficiency of anti-IL17RB chimeric D9 antibody (cD9). A, the specific recognition of mouse and chimeric D9 antibody to IL-17RB was determined by FACS analysis using IL-17RB expression (WT) and IL-17RB knock-out (KO) pancreatic cancer cell line CFPAC-1. The FACS profiling of no antibody (no staining) or secondary antibody only (2nd Ab only) were served as control. B, the recognition efficiency of mouse and chimeric D9 antibody was measured by FACS analysis using IL-17RB expression pancreatic cancer cell lines, CFPAC-1 and HPAF-II. MCF10A with no IL-17RB expression was served as negative control.

B1: chimeric monoclonal anti-IL-17RB antibody cD9 (antibody, V domains shown)
VH: EVQLQQSGPELVKPGASVKISCKTSGYTFTEYTIHWVKQNHGKSLDWIGGINPNNGGTTYNQEFKGKATLTVDKSSSTAYMEFRSLTSEDSAVYYCARSYYGYVDYWGQGTTLTAA
VL: QIVLTQSPAIMSASPGEKVTMTCSASSSIYYIHWYQQKSGTSPKRWIYDTSKLASGVPARFSGSGSGTSYSLTISSMEAEDAATYYCQQWSSNPFTFGSGTKLEIK
notes: also called chimeric D9 antibody; mAb cD9
Regarding B1, the binding result is “binds”.

B2: mouse monoclonal anti-IL-17RB antibody D9 (antibody, V domains shown)
VH: B1 VH
VL: B1 VL
notes: Mouse monoclonal antibody from a hybridoma, raised against recombinant IL-17RB extracellular domain (amino acids 18-289) made in HEK293 cells; also called mAb D9; mAbD9
For B2, the binding result was “binds”.
